From article PMC9927256, “Structural and Functional Characterization of Rv0792c from Mycobacterium tuberculosis: Identifying Small Molecule Inhibitor against HutC Protein” (Microbiology Spectrum, 2022)
Residue numbers refer to the chain shown, from its start.

Experiments:
[1] = target: T1, Rv0792c G80D G80D (Mycobacterium tuberculosis) (UniProt O86331); assay: ALISA (plate-immobilized protein)
T1 sequence: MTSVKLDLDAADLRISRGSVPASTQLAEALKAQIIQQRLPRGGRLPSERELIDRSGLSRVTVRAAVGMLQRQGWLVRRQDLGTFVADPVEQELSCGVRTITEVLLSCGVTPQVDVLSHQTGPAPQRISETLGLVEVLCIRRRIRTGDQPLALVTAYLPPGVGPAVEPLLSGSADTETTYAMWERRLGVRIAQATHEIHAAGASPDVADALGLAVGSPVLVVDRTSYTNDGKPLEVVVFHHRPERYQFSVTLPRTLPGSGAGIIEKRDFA

[2] = target: T2, Rv0792c R49A R49A (Mycobacterium tuberculosis) (UniProt O86331); assay: ALISA (plate-immobilized protein)
T2 sequence: T1 sequence with R49A, D80G

**Q.** Which Kd [1] does the source give for “TCTAGTCATTCGTCATAATCCCATCTGTTTCTTCCTCCTTCCGT [Rv0792c_2 aptamer (also Rv0729c_2)]” here?
**A.** The Kd was 120 nM.

**Q.** And the Kd [2]?
**A.** Its Kd is 74 nM.
